Laboratory results as given in US12338277.

Columns and labels:
Assay in all cases: cell-based or functional assay
[1] = biological target: HIV-1 envelope of pseudovirus YU-2 (HIV-1)
[2] = biological target: HIV-1 envelope spike of pseudovirus SC422661.8 (HIV-1)
[3] = biological target: HIV-1 Env of pseudovirus MS208.A1 (HIV-1)
[4] = biological target: HIV-1 Env of pseudovirus 6041.v3.c23 (HIV-1)
[5] = biological target: HIV-1 Env of pseudovirus WEAU_d15_410_787 (HIV-1)
[6] = biological target: HIV-1 Env of pseudovirus ZM109F.PB4 (HIV-1)
[7] = biological target: HIV-1 Env of pseudovirus BJOX025000.01.1 (HIV-1)
[8] = biological target: HIV-1 envelope of pseudovirus R1166.c01 (HIV-1)
[9] = biological target: HIV-1 Env of pseudovirus Ce0682_E4 (HIV-1)
[10] = biological target: HIV-1 envelope of pseudovirus CNE58 (HIV-1)
[11] = biological target: HIV-1 Env of pseudovirus YU-2 (HIV-1) (UniProt P35961)
[12] = biological target: HIV-1 Env of pseudovirus BJOX010000.06.2 (HIV-1)
[13] = biological target: HIV-1 envelope of pseudovirus Q769.d22 (HIV-1)
[14] = biological target: HIV-1 Env of pseudovirus BF1266.431a (HIV-1)
[15] = biological target: HIV-1 Env of pseudovirus T257-31 (HIV-1)
[16] = biological target: HIV-1 Env of pseudovirus X1254_c3 (HIV-1)
[17] = biological target: HIV-1 envelope of pseudovirus Ce2060_G9 (HIV-1)
[18] = biological target: HIV-1 Env of pseudovirus C3347.c11 (HIV-1)
[19] = biological target: HIV-1 Env of pseudovirus Ce1086_B2 (HIV-1)
[20] = biological target: HIV-1 Env of pseudovirus 1054_07_TC4_1499 (HIV-1)
[21] = biological target: HIV-1 envelope of pseudovirus 6540.v4.c1 (HIV-1)
[22] = biological target: HIV-1 Env of pseudovirus HIV-16055-2.3 (HIV-1)
[23] = biological target: HIV-1 envelope spike of pseudovirus QH0692.42 (HIV-1)
[24] = biological target: HIV-1 envelope of pseudovirus CNE17 (HIV-1)
[25] = biological target: HIV-1 Env of pseudovirus CNE30 (HIV-1)
[26] = biological target: HIV-1 Env of pseudovirus 231966.c02 (HIV-1)
[27] = biological target: HIV-1 envelope of pseudovirus 0260.v5.c36 (HIV-1)
[28] = biological target: HIV-1 Env of pseudovirus 620345.c01 (HIV-1)
[29] = biological target: HIV-1 envelope of pseudovirus Q451.e2 (HIV-1)
[30] = biological target: HIV-1 envelope of pseudovirus Q842.d12 (HIV-1)
[31] = biological target: HIV-1 Env of pseudovirus 6535.3 (HIV-1)
[32] = biological target: HIV-1 envelope spike of pseudovirus 6535.3 (HIV-1)
[33] = biological target: HIV-1 Env of pseudovirus THRO4156.18 (HIV-1)
[34] = biological target: HIV-1 envelope of pseudovirus Ce1086_B2 (HIV-1)
[35] = biological target: HIV-1 Env of pseudovirus 928-28 (HIV-1)
[36] = biological target: HIV-1 Env of pseudovirus CAAN5342.A2 (HIV-1)
[37] = biological target: HIV-1 envelope of pseudovirus R2184.c04 (HIV-1)
[38] = biological target: HIV-1 envelope of pseudovirus 246F C1G (HIV-1)
[39] = biological target: HIV-1 Env of pseudovirus R2184.c04 (HIV-1)
[40] = biological target: HIV-1 Env of pseudovirus C2101.c01 (HIV-1)
[41] = biological target: HIV-1 envelope of pseudovirus BJOX028000.10.3 (HIV-1)
[42] = biological target: HIV-1 Env of pseudovirus 7030102001E5(Rev-) (HIV-1)
[43] = biological target: HIV-1 envelope of pseudovirus CNE8 (HIV-1)
[44] = biological target: HIV-1 Env of pseudovirus 249M B10 (HIV-1)
[45] = biological target: HIV-1 Env of pseudovirus ZM135M.PL10a (HIV-1)
[46] = biological target: HIV-1 envelope of pseudovirus BJOX010000.06.2 (HIV-1)
[47] = biological target: HIV-1 envelope of pseudovirus 191821_E6_1 (HIV-1)
[48] = biological target: HIV-1 Env of pseudovirus Ce2060_G9 (HIV-1)
[49] = biological target: HIV-1 Env of pseudovirus 3415.v1.c1 (HIV-1)
[50] = biological target: HIV-1 Env of pseudovirus TRJO4551.58 (HIV-1)

Sequence of 10-1074 (antibody) (VH): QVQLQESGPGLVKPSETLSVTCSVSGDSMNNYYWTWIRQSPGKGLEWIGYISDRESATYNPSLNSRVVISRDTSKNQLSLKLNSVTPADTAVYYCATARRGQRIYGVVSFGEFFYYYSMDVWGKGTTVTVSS
Sequence of 10-1074 (antibody) (V domain): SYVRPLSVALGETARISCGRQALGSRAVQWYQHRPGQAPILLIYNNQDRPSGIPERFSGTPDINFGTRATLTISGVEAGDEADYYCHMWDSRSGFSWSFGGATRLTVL
Sequence of HIV-1 Env of pseudovirus YU-2 (HIV-1) (P35961 32-843 limits assumed): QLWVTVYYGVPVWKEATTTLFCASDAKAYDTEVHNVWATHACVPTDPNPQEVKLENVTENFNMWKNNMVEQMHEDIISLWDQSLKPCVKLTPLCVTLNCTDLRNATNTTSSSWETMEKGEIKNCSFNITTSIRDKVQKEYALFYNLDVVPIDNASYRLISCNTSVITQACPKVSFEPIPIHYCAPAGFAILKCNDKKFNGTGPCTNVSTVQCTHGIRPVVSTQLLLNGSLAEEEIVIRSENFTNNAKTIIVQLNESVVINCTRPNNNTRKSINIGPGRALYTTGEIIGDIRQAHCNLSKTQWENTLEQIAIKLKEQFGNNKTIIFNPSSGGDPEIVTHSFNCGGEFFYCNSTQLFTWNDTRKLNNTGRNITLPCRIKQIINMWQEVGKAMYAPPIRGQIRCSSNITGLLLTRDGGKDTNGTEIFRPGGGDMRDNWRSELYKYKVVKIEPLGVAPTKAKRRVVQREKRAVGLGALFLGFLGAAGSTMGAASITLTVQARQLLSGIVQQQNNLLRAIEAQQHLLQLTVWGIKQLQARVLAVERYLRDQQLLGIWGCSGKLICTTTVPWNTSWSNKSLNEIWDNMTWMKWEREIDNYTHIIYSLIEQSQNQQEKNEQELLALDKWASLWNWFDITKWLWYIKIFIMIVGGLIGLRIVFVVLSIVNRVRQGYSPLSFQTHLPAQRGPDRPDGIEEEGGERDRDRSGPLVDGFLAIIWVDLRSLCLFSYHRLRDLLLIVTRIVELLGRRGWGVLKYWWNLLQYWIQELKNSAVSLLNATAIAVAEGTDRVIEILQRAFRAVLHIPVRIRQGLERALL

PGT121 (antibody)
IC50 (TZM-bl neutralization) [1]: 0.098 µg/mL | IC50 (TZM-bl neutralization assay) [2]: 0.263 µg/mL | IC80 (TZM-bl neutralization assay) [2]: 0.714 µg/mL | IC80 (TZM-bl neutralization) [3]: > 50 µg/mL | IC80 (TZM-bl neutralization) [4]: > 50 µg/mL | IC80 (TZM-bl neutralization) [5]: 0.295 µg/mL | IC80 (TZM-bl neutralization) [6]: > 50 µg/mL | IC80 (TZM-bl neutralization) [7]: > 50 µg/mL | IC50 (TZM-bl neutralization) [8]: > 50 µg/mL | IC80 (TZM-bl neutralization) [9]: > 50 µg/mL | IC50 (TZM-bl neutralization) [10]: > 50 µg/mL | IC80 (TZM-bl neutralization) [11]: 0.356 µg/mL | IC80 (TZM-bl neutralization) [12]: > 50 µg/mL | IC50 (TZM-bl neutralization) [13]: > 50 µg/mL | IC80 (TZM-bl neutralization) [14]: > 50 µg/mL | IC80 (TZM-bl neutralization) [15]: > 50 µg/mL | IC80 (TZM-bl neutralization) [16]: 0.199 µg/mL | IC50 (TZM-bl neutralization) [17]: > 50 µg/mL | IC80 (TZM-bl neutralization) [18]: > 50 µg/mL | IC80 (TZM-bl neutralization) [19]: 0.006 µg/mL | IC80 (TZM-bl neutralization) [20]: 0.696 µg/mL | IC50 (TZM-bl neutralization) [21]: > 50 µg/mL | IC80 (TZM-bl neutralization) [22]: 4.29 µg/mL | IC50 (TZM-bl neutralization assay) [23]: 1.08 µg/mL | IC50 (TZM-bl neutralization) [24]: 45.3 µg/mL | IC80 (TZM-bl neutralization) [25]: 0.559 µg/mL | IC80 (TZM-bl neutralization) [26]: > 50 µg/mL | IC50 (TZM-bl neutralization) [27]: 0.054 µg/mL | IC80 (TZM-bl neutralization) [28]: > 50 µg/mL | IC50 (TZM-bl neutralization) [29]: > 50 µg/mL | IC50 (TZM-bl neutralization) [30]: 0.023 µg/mL | IC80 (TZM-bl neutralization) [31]: 0.021 µg/mL | IC50 (TZM-bl neutralization assay) [32]: 0.007 µg/mL | IC80 (TZM-bl neutralization assay) [32]: 0.041 µg/mL | IC80 (TZM-bl neutralization) [33]: > 50 µg/mL | IC50 (TZM-bl neutralization) [34]: < 0.001 µg/mL | IC80 (TZM-bl neutralization) [35]: > 50 µg/mL | IC80 (TZM-bl neutralization) [36]: 0.051 µg/mL | IC50 (TZM-bl neutralization) [37]: > 50 µg/mL | IC50 (TZM-bl neutralization) [38]: 0.083 µg/mL | IC80 (TZM-bl neutralization) [39]: > 50 µg/mL | IC80 (TZM-bl neutralization) [40]: > 50 µg/mL | IC50 (TZM-bl neutralization) [41]: > 50 µg/mL | IC80 (TZM-bl neutralization) [42]: 0.043 µg/mL | IC50 (TZM-bl neutralization) [43]: > 50 µg/mL | IC80 (TZM-bl neutralization) [44]: > 50 µg/mL | IC80 (TZM-bl neutralization) [45]: 5.88 µg/mL | IC50 (TZM-bl neutralization) [46]: > 50 µg/mL | IC50 (TZM-bl neutralization) [47]: > 50 µg/mL | IC80 (TZM-bl neutralization) [48]: > 50 µg/mL | IC80 (TZM-bl neutralization) [49]: > 50 µg/mL | IC80 (TZM-bl neutralization) [50]: 35.3 µg/mL

10-1074 (antibody)
IC50 (TZM-bl neutralization) [1]: 0.143 µg/mL | IC50 (TZM-bl neutralization assay) [2]: 0.145 µg/mL | IC80 (TZM-bl neutralization assay) [2]: 0.392 µg/mL | IC80 (TZM-bl neutralization) [3]: > 50 µg/mL | IC80 (TZM-bl neutralization) [4]: > 50 µg/mL | IC80 (TZM-bl neutralization) [5]: 0.375 µg/mL | IC80 (TZM-bl neutralization) [6]: > 50 µg/mL | IC80 (TZM-bl neutralization) [7]: > 50 µg/mL | IC50 (TZM-bl neutralization) [8]: > 50 µg/mL | IC80 (TZM-bl neutralization) [9]: > 50 µg/mL | IC50 (TZM-bl neutralization) [10]: 0.267 µg/mL | IC80 (TZM-bl neutralization) [11]: 0.398 µg/mL | IC80 (TZM-bl neutralization) [12]: > 50 µg/mL | IC50 (TZM-bl neutralization) [13]: > 50 µg/mL | IC80 (TZM-bl neutralization) [14]: > 50 µg/mL | IC80 (TZM-bl neutralization) [15]: > 50 µg/mL | IC80 (TZM-bl neutralization) [16]: 0.297 µg/mL | IC50 (TZM-bl neutralization) [17]: > 50 µg/mL | IC80 (TZM-bl neutralization) [18]: > 50 µg/mL | IC80 (TZM-bl neutralization) [19]: > 50 µg/mL | IC80 (TZM-bl neutralization) [20]: 0.563 µg/mL | IC50 (TZM-bl neutralization) [21]: > 50 µg/mL | IC80 (TZM-bl neutralization) [22]: > 50 µg/mL | IC50 (TZM-bl neutralization assay) [23]: 0.259 µg/mL | IC80 (TZM-bl neutralization assay) [23]: 0.861 µg/mL | IC50 (TZM-bl neutralization) [24]: 2.69 µg/mL | IC80 (TZM-bl neutralization) [25]: 1.2 µg/mL | IC80 (TZM-bl neutralization) [26]: > 50 µg/mL | IC50 (TZM-bl neutralization) [27]: 0.099 µg/mL | IC80 (TZM-bl neutralization) [28]: > 50 µg/mL | IC50 (TZM-bl neutralization) [29]: > 50 µg/mL | IC50 (TZM-bl neutralization) [30]: > 50 µg/mL | IC80 (TZM-bl neutralization) [31]: 0.026 µg/mL | IC50 (TZM-bl neutralization assay) [32]: 0.007 µg/mL | IC80 (TZM-bl neutralization assay) [32]: 0.044 µg/mL | IC80 (TZM-bl neutralization) [33]: > 50 µg/mL | IC50 (TZM-bl neutralization) [34]: > 50 µg/mL | IC80 (TZM-bl neutralization) [35]: 4.7 µg/mL | IC80 (TZM-bl neutralization) [36]: 0.036 µg/mL | IC50 (TZM-bl neutralization) [37]: > 50 µg/mL | IC50 (TZM-bl neutralization) [38]: 0.022 µg/mL | IC80 (TZM-bl neutralization) [39]: > 50 µg/mL | IC80 (TZM-bl neutralization) [40]: > 50 µg/mL | IC50 (TZM-bl neutralization) [41]: > 50 µg/mL | IC80 (TZM-bl neutralization) [42]: 0.021 µg/mL | IC50 (TZM-bl neutralization) [43]: > 50 µg/mL | IC80 (TZM-bl neutralization) [44]: > 50 µg/mL | IC80 (TZM-bl neutralization) [45]: 0.367 µg/mL | IC50 (TZM-bl neutralization) [46]: > 50 µg/mL | IC50 (TZM-bl neutralization) [47]: > 50 µg/mL | IC80 (TZM-bl neutralization) [48]: > 50 µg/mL | IC80 (TZM-bl neutralization) [49]: > 50 µg/mL | IC80 (TZM-bl neutralization) [50]: 0.634 µg/mL
